Laboratory results: US7867500B2, “Cofactor that modulates steroid receptor activities” (The United States of America as represented by the …, priority 2004, dated 2011)

Columns and labels:
Assay type in all cases: cell-based
thyroid receptor β (TRβ) = target: T1, thyroid receptor β (TRβ) (Homo sapiens, UniProt P10828); assay: TRβ-mediated induction of reporter in CV-1 cells; conditions: triiodothyronine; regardless of whether TIF2 is present
T1 construct: the whole cell actions of TIF2 with full length AR and TRβ; expressed in transfected cells; host or cells: CV-1
T1 sequence (P10828 1-461): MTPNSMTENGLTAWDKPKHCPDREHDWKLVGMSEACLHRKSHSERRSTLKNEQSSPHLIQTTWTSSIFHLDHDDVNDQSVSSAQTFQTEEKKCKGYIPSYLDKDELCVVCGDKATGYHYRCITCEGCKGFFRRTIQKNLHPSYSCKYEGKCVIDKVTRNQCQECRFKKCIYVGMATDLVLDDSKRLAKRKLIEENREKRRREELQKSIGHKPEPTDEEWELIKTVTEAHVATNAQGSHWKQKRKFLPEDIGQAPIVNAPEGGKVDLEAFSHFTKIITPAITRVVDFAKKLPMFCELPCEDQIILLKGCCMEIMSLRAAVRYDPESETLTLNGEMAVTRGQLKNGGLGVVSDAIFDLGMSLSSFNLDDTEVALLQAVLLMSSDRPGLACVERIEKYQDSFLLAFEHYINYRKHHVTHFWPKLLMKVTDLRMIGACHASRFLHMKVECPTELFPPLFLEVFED
Protocol: FIG. 6D1-2 illustrate the effects of STAMP and TIF2 on androgen receptor (AR, FIG. 6D1) and thyroid receptor β (TRβ, FIG. 6D2) expression. […] Luciferase activities, normalized to the internal Renilla control values, and the fold changes in EC50 and fold induction were determined and plotted as in FIG. 4B.

PPARγ2 = target: T2, PPARγ2 (Homo sapiens, UniProt P37231); assay: Mammalian two-hybrid assay with VP16 full length receptor: PPARγ2; conditions: 1 μM roziglitazone
T2 construct: plus VP16 fused to the indicated full length receptors; expressed in transfected cells; host or cells: CV-1
T2 sequence (P37231 1-505): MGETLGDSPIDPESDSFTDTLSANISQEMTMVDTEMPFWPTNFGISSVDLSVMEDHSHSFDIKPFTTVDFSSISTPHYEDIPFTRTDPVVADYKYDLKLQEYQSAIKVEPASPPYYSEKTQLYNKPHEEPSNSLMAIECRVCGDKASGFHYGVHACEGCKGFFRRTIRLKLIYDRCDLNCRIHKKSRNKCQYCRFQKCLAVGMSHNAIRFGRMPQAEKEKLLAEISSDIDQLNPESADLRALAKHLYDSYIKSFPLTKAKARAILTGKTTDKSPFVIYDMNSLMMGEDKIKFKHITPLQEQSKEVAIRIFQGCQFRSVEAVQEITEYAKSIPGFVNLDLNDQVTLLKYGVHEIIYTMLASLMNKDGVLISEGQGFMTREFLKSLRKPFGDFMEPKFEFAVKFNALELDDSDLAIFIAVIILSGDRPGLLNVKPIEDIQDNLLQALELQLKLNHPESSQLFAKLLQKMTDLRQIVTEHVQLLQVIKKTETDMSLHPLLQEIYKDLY
Protocol: (§1) FIG. 6C1-3 illustrate the association of STAMP with assorted steroid/nuclear receptors, including glucocorticoid receptors (GRs), progesterone receptors (PRs), androgen receptors (ARs), estrogen receptors (ER α or β), PPARγ2 receptors, thyroid receptor beta (TR), and retinoid (α) receptors (RAR α or RXR α). Triplicate samples of CV-1 cells were transfected (as described for FIG. 6B) with GAL, or GAL fused to TIF2.4 or STAMP834C, plus VP16 fused to the indicated full length receptors and incubated with the appropriate steroid (1 μM Dex, 20 nM R5020, 1 nM R1881, 0.1 μM triiodothyronine, or 1 μM estradiol, roziglitazone, or 9-cis-retinoic acid). The average relative luciferase activities of 2-3 experiments±S.E.M. were then plotted. FIG. 6C1 illustrates the effects of STAMP association upon GR, PR and AR induced expression. FIG. 6C2 illustrates the effects of STAMP association upon ERα, ERβ and PPARγ2 induced expression. FIG. 6C3 illustrates the effects of STAMP association upon TR, RARα and RXRα induced expression.
(§2) These assays were conducted as described (He et al., 2002). […]

[1] = target: T3, thyroid (TR) (β) receptor (Homo sapiens, UniProt P10828); assay: Mammalian two-hybrid assay with VP16 full length receptor: TRβ; conditions: 0.1 μM triiodothyronine
T3 construct: plus VP16 fused to the indicated full length receptors; expressed in transfected cells; host or cells: CV-1
T3 sequence (P10828 1-461): T1 sequence (P10828 1-461)
Protocol: as §1, §2

TIF2.4m123 = assay: Mammalian two-hybrid assay in CV-1 cells with TIF2.4m123; conditions: equal amounts of protein
Source text: FIG. 2A-2C illustrate the isolation and characterization of the partial clone of the protein that binds to TIF2.4. […] Five clones were obtained but only two (clones I and V) contained a protein that was needed for colony growth in the presence of the pSos/TIF2.4 fusion protein. After initial screening, only clone I (also named 6-6CL1) was selected for further investigation. FIG. 2B and FIG. 2C illustrate the selectivity of 6-6CL1 interactions with TIF2.4 in mammalian two-hybrid assays. Triplicate samples of CV-1 cells in 24-well plates were transiently transfected with the indicated GAL-DBD and VP16-AD plasmids along with the GAL4-regulated reporter, pFRLuc. The relative luciferase activity, normalized for the activity of the internal Renilla control, was determined and plotted as the average±S.D. The much lower activity of GAL/TIF2.4m123 was previously shown not to be due to unequal levels of protein expression (He et al., 2002). Similar results were obtained in three additional experiments. […] Triplicate samples of CV-1 cells in 24-well plates were analyzed as in (B&C) after being transiently transfected with GAL±6-6CL1 constructs and pFRLuc reporter along with VP16 chimeras of SRC-1 (FIG. 2D) or TIF2 (FIG. 2E) segments. Similar results for SRC-1 were obtained in two additional experiments (ND=not determined). […]

B1: STAMP: SRC-1 and TIF2 Associated Modulatory Protein, 1277 amino acid human polypeptide, expressed from transfected plasmid (protein)
chain: MARDLEETASSSEDEEVISQEDHPCIMWTGGCRRIPVLVFHADAILTKDNNIRVIGERYHLSYKIVRTDSRLVRSILTAHGFHEVHPSSTDYNLMWTGSHLKPFLLRTLSEAQKVNHFPRSYELTRKDRLYKNIIRMQHTHGFKVFHILPQTFLLPAEYAEFCNSYSKDRGPWIVKPVASSRGRGVYLINNPNQISLEENILVSRYINNPLLIDDFKFDVRLYVLVTSYDPLVIYLYEEGLARFATVRYDQGAKNIRNQFMHLTNYSVNKKSGDYVSCDDPEVEDYGNKWSMSAMLRYLKQEGRDTTALMAHVEDLIIKTIISAELAIATACKTFVPHRSSCFELYGFDVLIDSTLKPWLLEVNLSPSLACDAPLDLKIKASMISDMFTVVGFVCQDPAQRASTRPIYPTFESSRRNPFQKPQRCRPLSASDAEMKNLVGSAREKGPGKLGGSVLGLSMEEIKVLRRVKEENDRRGGFIRIFPTSETWEIYGSYLEHKTSMNYMLATRLFQDRMTADGAPELKIESLNSKAKLHAALYERKLLSLEVRKRRRRSSRLRAMRPKYPVITQPAEMNVKTETESEEEEEVALDNEDEEQEASQEESAGFLRENQAKYTPSLTALVENTPKENSMKVREWNNKGGHCCKLETQELEPKFNLMQILQDNGNLSKMQARIAFSAYLQHVQIRLMKDSGGQTFSASWAAKEDEQMELVVRFLKRASNNLQHSLRMVLPSRRLALLERRRILAHQLGDFIIVYNKETEQMAEKKSKKKVEEEEEDGVNMENFQEFIRQASEAELEEVLTFYTQKNKSASVFLGTHSKISKNNNNYSDSGAKGDHPETIMEEVKIKPPKQQQTTEIHSDKLSRFTTSAEKEAKLVYSNSSSGPTATLQKIPNTHLSSVTTSDLSPGPCHHSSLSQIPSAIPSMPHQPTILLNTVSASASPCLHPGAQNIPSPTGLPRCRSGSHTIGPFSSFQSAAHIYSQKLSRPSSAKAGSCYLNKHHSGIAKTQKEGEDASLYSKRYNQSMVTAELQRLAEKQAARQYSPSSHINLLTQQVTNLNLATGIINRSSASAPPTLRPIISPSGPTWSTQSDPQAPENHSSSPGSRSLQTGGFAWEGEVENNVYSQATGVVPQHKYHPTAGSYQLQFALQQLEQQKLQSRQLLDQSRARHQAIFGSQTLPNSNLWTMNNGAGCRISSATASGQKPTTLPQKVVPPPSSCASLVPKPPPNHEQVLRRATSQKASKGSSAEGQLNGLQSSLNPAASVPITSSTDPAHTKI
Thyroid receptor β (TRβ)
  increase of the fold induction with TRβ: little ability
  left-shift in the dose-response curve with TRβ: little ability

B2: STAMP834C: STAMP fragment amino acids 834-1277, receptor interaction domain (RID) (protein)
chain: GDHPETIMEEVKIKPPKQQQTTEIHSDKLSRFTTSAEKEAKLVYSNSSSGPTATLQKIPNTHLSSVTTSDLSPGPCHHSSLSQIPSAIPSMPHQPTILLNTVSASASPCLHPGAQNIPSPTGLPRCRSGSHTIGPFSSFQSAAHIYSQKLSRPSSAKAGSCYLNKHHSGIAKTQKEGEDASLYSKRYNQSMVTAELQRLAEKQAARQYSPSSHINLLTQQVTNLNLATGIINRSSASAPPTLRPIISPSGPTWSTQSDPQAPENHSSSPGSRSLQTGGFAWEGEVENNVYSQATGVVPQHKYHPTAGSYQLQFALQQLEQQKLQSRQLLDQSRARHQAIFGSQTLPNSNLWTMNNGAGCRISSATASGQKPTTLPQKVVPPPSSCASLVPKPPPNHEQVLRRATSQKASKGSSAEGQLNGLQSSLNPAASVPITSSTDPAHTKI
PPARγ2
  interaction with PPARγ2: lack of interaction
[1]
  interaction with thyroid receptor β: lack of interaction

B3: 6-6CL1: STAMP fragment amino acids 623-834, coactivator interaction domain (CID) (protein)
chain: ENTPKENSMKVREWNNKGGHCCKLETQELEPKFNLMQILQDNGNLSKMQARIAFSAYLQHVQIRLMKDSGGQTFSASWAAKEDEQMELVVRFLKRASNNLQHSLRMVLPSRRLALLERRRILAHQLGDFIIVYNKETEQMAEKKSKKKVEEEEEDGVNMENFQEFIRQASEAELEEVLTFYTQKNKSASVFLGTHSKISKNNNNYSDSGAKG
TIF2.4m123
  interaction with TIF2.4m123: did not interact
